Earlier results on one substance are cited in article PMC7140434.

The series has as its target emerin (Homo sapiens) (UniProt P50402).
Chain of UniProt P50402 (P50402 whole entry): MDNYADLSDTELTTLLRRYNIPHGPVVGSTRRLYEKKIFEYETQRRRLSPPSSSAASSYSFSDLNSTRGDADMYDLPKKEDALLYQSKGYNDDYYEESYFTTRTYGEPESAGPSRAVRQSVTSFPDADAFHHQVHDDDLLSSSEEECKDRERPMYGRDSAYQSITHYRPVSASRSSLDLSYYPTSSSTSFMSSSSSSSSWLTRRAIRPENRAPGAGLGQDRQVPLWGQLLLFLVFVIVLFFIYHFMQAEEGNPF

As for HDAC3 (from UniProt O15379), the Kd was 7.3 µM.

One may read the Kd as the free concentration of one partner at which half of the binding sites on the other are occupied at equilibrium, for simple one-to-one binding.
